# In patent US6461841B2, “L-amino acid oxidase from Rhodococcus species” (Degussa AG, priority 2000, dated 2002):
# B1: L-amino acid oxidase: L-amino acid oxidase (L-AAO) from Rhodococcus opacus DSM 43250, SEQ ID NO: 2, homogeneously purified (protein, listed as Rhodococcus opacus)
# chain: AGDLIGKVKGSHSVVVLGGGPAGLCSAFELQKAGYKVTVLEARTRPGGRVWTARGGSEETDLSGETQKCTFSEGHFYNVGATRIPQSHITLDYCRELGVEIQGFGNQNANTFVNYQSDTSLSGQSVTYRAAKADTFGYMSELLKKATDQGALDQVLSREDKDALSEFLSDFGDLSDDGRYLGSSRRGYDSEPGAGLNFGTEKKPFAMQEVIRSGIGRNFSFDFGYDQAMMMFTPVGGMDRIYYAFQDRIGTDNIVFGAEVTSMKNVSEGVTVEYTAGGSKKSITADYAICTIPPHLVGRLQNNLPGDVLTALKAAKPSSSGKLGIEYSRRWWETEDRIYGGASNTDKDISQIMFPYDHYNSDRGVVVAYYSSGKRQEAFESLTHRQRLAKAIAEGSEIHGEKYTRDISSSFSGSWRRTKYSESAWANWAGSGGSHGGAATPEYEKLLEPVDKIYFAGDHLSNAIAWQHGALTSARDVVTHIHERVAQEA
# How the values were obtained:
# [1] = Enzyme test of purification fractions with L-ala (o-dianisidine/POX, 450 nm); format: biochemical, Rhodococcus opacus; conditions: 0.2 M TEA-HCl, pH 7.6, 10 mM L-ala, 30° C.
# Method: The cells were digested by means of wet grinding with glass beads. For this purpose, the moist bacteria mass (15 g) was suspended in 50 mM TEA-HCl buffer (pH 7.0), so that the concentration of the moist cell mass was 25%. The cell content substances were released from the ice-cooled suspension by means of mechanical digestion using a glass bead mill (SCP disintegrator, Innomed-Konsult AB, Sweden). For this purpose, the grinding container was filled with 100 mL glass beads (diameter 0.3 mm) and the cell suspension. Digestion was carried out at a stirring shaft speed of 3,000 rpm. The cooling mantle was filled with ice water before the start of the run.
# 15 g moist bacteria mass yielded 45 mL crude extract with a volume activity of 0.035 U/mL and a protein content of 9.4 mg/mL. From this, it can be calculated that approximately 150 units L-amino acid oxidase can be obtained from 10 L fermenter batch.
# The enzyme can be purified by means of ion exchange chromatography, hydrophobic interaction chromatography, and chromatography with hydroxyl apatite as the column material. The crude extract was pumped onto a column (h 5.5×diameter 5 cm) packed with MarcoPrep High Q Support Material (Biorad, Hercules, USA), at a flow velocity of 0.2 mnL/min. The ion exchanger had previously been equilibrated with a buffer, which contained 50 mM TEA-HCl, pH 7.0. […]
# [2] = Storage stability of the L-amino acid oxidase as a function of the pH; format: physicochemical, Rhodococcus opacus; conditions: after 100 hours in glycine NaOH buffer at pH 10 and 10.5; room temperature; 24 μg/mL protein
# Method: c) Storage Stability of the L-amino Acid Oxidase as a Function of the pH L-amino acid oxidase was incubated in 0.2 M buffer of different compositions, at a protein concentration of 24, μg/mL, at room temperature. Afterwards, the residual activity was determined using 0.2 M TEA buffer, pH 7.6, and 10 mM L-ala. […] After 100 hours in glycine NaOH buffer, it was still possible to detect more than 90% activity at pH 10 and 10.5.
# [3] = Storage stability of the L-amino acid oxidase at 4° C.; format: physicochemical, Rhodococcus opacus; conditions: several months; 0.7 mg/mL protein; 50 mM glycine NaOH buffer, pH 8.6; sterile conditions
# [4] = Determination of the isoelectric point by isoelectric focusing; format: physicochemical, Rhodococcus opacus; conditions: carrier ampholytes on agarose, pH range 4-6
# Method: The isoelectric point of the L-amino acid oxidase was determined using isoelectric focusing with carrier ampholytes on agarose, in a pH range of 4-6. The pI is at pH 4.8. Carboanhydrase, β-lactoglobulin, trypsin inhibitor, glucose oxidase were used as marker proteins.
# [5] = pH dependence of the oxidation process; format: biochemical, Rhodococcus opacus; conditions: 80 mM TEA-HCl buffer; for L-alanine, L-phenylalanine and L-leucine
# Method: The reaction speed of the oxidation of L-amino acids to keto acids in the presence of the L-amino acid oxidase was studied as a function of the pH in the reaction solution. The test batch (200 μL) had the following composition: 10 mM L-amino acid, 25 U/mL peroxidase from horseradish, 80 mM buffer with different pH values and compositions, 0.2 mg/mL o-dianisidine, enzyme in limiting amount.
molecule,measurement,setting,value
B1,Spec. act. (U/mg),[1],4.6 U/mg
same,Spec. act. (U/mg),[1]; listed as Hydroxyl apatite pool,4.61 U/mg
same,residual activity,[2],more than 90%
same,storage stability at 4° C.,[3],without any loss of activity
same,isoelectric point (pI),[4],4.8
same,pH optimum,[5],8.5
